B1: FliF(L253A), overexpressed in E. coli (natural protein)
chain: MSATASTATQPKPLEWLNRLRANPRIPLIVAGSAAVAIVVAMVLWAKTPDYRTLFSNLSDQDGGAIVAQLTQMNIPYRFANGSGAIEVPADKVHELRLRLAQQGLPKGGAVGFELLDQEKFGISQFSEQVNYQRALEGELARTIETLGPVKSARVHLAMPKPSLFVREQKSPSASVTVTLEPGRALDEGQISAVVHLVSSAVAGLPPGNVTLVDQSGHLLTQSNTSGRDLNDAQLKFANDVESRIQRRIEAIASPIVGNGNVHAQVTAQLDFANKEQTEEHYSPNGDASKATLRSRQLNISEQVGAGYPGGVPGALSNQPAPPNEAPIATPPTNQQNAQNTPQTSTSTNSNSAGPRSTQRNETSNYEVDRTIRHTKMNVGDIERLSVAVVVNYKTLADGKPLPLTADQMKQIEDLTREAMGFSDKRGDTLNVVNSPFSAVDNTGGELPFWQQQSFIDQLLAAGRWLLVLVVAWILWRKAVRPQLTRRVEEAKAAQEQAQVRQETEEAVEVRLSKDEQLQQRRANQRLGAEVMSQRIREMSDNDPRVVALVIRQWMSNDHE
B2: FliF(V266A), overexpressed in E. coli (natural protein)
chain: MSATASTATQPKPLEWLNRLRANPRIPLIVAGSAAVAIVVAMVLWAKTPDYRTLFSNLSDQDGGAIVAQLTQMNIPYRFANGSGAIEVPADKVHELRLRLAQQGLPKGGAVGFELLDQEKFGISQFSEQVNYQRALEGELARTIETLGPVKSARVHLAMPKPSLFVREQKSPSASVTVTLEPGRALDEGQISAVVHLVSSAVAGLPPGNVTLVDQSGHLLTQSNTSGRDLNDAQLKFANDVESRIQRRIEAILSPIVGNGNVHAQATAQLDFANKEQTEEHYSPNGDASKATLRSRQLNISEQVGAGYPGGVPGALSNQPAPPNEAPIATPPTNQQNAQNTPQTSTSTNSNSAGPRSTQRNETSNYEVDRTIRHTKMNVGDIERLSVAVVVNYKTLADGKPLPLTADQMKQIEDLTREAMGFSDKRGDTLNVVNSPFSAVDNTGGELPFWQQQSFIDQLLAAGRWLLVLVVAWILWRKAVRPQLTRRVEEAKAAQEQAQVRQETEEAVEVRLSKDEQLQQRRANQRLGAEVMSQRIREMSDNDPRVVALVIRQWMSNDHE
B3: FliF(V266R), overexpressed in E. coli (natural protein)
chain: MSATASTATQPKPLEWLNRLRANPRIPLIVAGSAAVAIVVAMVLWAKTPDYRTLFSNLSDQDGGAIVAQLTQMNIPYRFANGSGAIEVPADKVHELRLRLAQQGLPKGGAVGFELLDQEKFGISQFSEQVNYQRALEGELARTIETLGPVKSARVHLAMPKPSLFVREQKSPSASVTVTLEPGRALDEGQISAVVHLVSSAVAGLPPGNVTLVDQSGHLLTQSNTSGRDLNDAQLKFANDVESRIQRRIEAILSPIVGNGNVHAQRTAQLDFANKEQTEEHYSPNGDASKATLRSRQLNISEQVGAGYPGGVPGALSNQPAPPNEAPIATPPTNQQNAQNTPQTSTSTNSNSAGPRSTQRNETSNYEVDRTIRHTKMNVGDIERLSVAVVVNYKTLADGKPLPLTADQMKQIEDLTREAMGFSDKRGDTLNVVNSPFSAVDNTGGELPFWQQQSFIDQLLAAGRWLLVLVVAWILWRKAVRPQLTRRVEEAKAAQEQAQVRQETEEAVEVRLSKDEQLQQRRANQRLGAEVMSQRIREMSDNDPRVVALVIRQWMSNDHE
B4: FliF(I252A), overexpressed in E. coli (natural protein)
chain: MSATASTATQPKPLEWLNRLRANPRIPLIVAGSAAVAIVVAMVLWAKTPDYRTLFSNLSDQDGGAIVAQLTQMNIPYRFANGSGAIEVPADKVHELRLRLAQQGLPKGGAVGFELLDQEKFGISQFSEQVNYQRALEGELARTIETLGPVKSARVHLAMPKPSLFVREQKSPSASVTVTLEPGRALDEGQISAVVHLVSSAVAGLPPGNVTLVDQSGHLLTQSNTSGRDLNDAQLKFANDVESRIQRRIEAALSPIVGNGNVHAQVTAQLDFANKEQTEEHYSPNGDASKATLRSRQLNISEQVGAGYPGGVPGALSNQPAPPNEAPIATPPTNQQNAQNTPQTSTSTNSNSAGPRSTQRNETSNYEVDRTIRHTKMNVGDIERLSVAVVVNYKTLADGKPLPLTADQMKQIEDLTREAMGFSDKRGDTLNVVNSPFSAVDNTGGELPFWQQQSFIDQLLAAGRWLLVLVVAWILWRKAVRPQLTRRVEEAKAAQEQAQVRQETEEAVEVRLSKDEQLQQRRANQRLGAEVMSQRIREMSDNDPRVVALVIRQWMSNDHE
B5: FliF(I252R), overexpressed in E. coli (natural protein)
chain: MSATASTATQPKPLEWLNRLRANPRIPLIVAGSAAVAIVVAMVLWAKTPDYRTLFSNLSDQDGGAIVAQLTQMNIPYRFANGSGAIEVPADKVHELRLRLAQQGLPKGGAVGFELLDQEKFGISQFSEQVNYQRALEGELARTIETLGPVKSARVHLAMPKPSLFVREQKSPSASVTVTLEPGRALDEGQISAVVHLVSSAVAGLPPGNVTLVDQSGHLLTQSNTSGRDLNDAQLKFANDVESRIQRRIEARLSPIVGNGNVHAQVTAQLDFANKEQTEEHYSPNGDASKATLRSRQLNISEQVGAGYPGGVPGALSNQPAPPNEAPIATPPTNQQNAQNTPQTSTSTNSNSAGPRSTQRNETSNYEVDRTIRHTKMNVGDIERLSVAVVVNYKTLADGKPLPLTADQMKQIEDLTREAMGFSDKRGDTLNVVNSPFSAVDNTGGELPFWQQQSFIDQLLAAGRWLLVLVVAWILWRKAVRPQLTRRVEEAKAAQEQAQVRQETEEAVEVRLSKDEQLQQRRANQRLGAEVMSQRIREMSDNDPRVVALVIRQWMSNDHE
B6: FliF(L253R), overexpressed in E. coli (natural protein)
chain: MSATASTATQPKPLEWLNRLRANPRIPLIVAGSAAVAIVVAMVLWAKTPDYRTLFSNLSDQDGGAIVAQLTQMNIPYRFANGSGAIEVPADKVHELRLRLAQQGLPKGGAVGFELLDQEKFGISQFSEQVNYQRALEGELARTIETLGPVKSARVHLAMPKPSLFVREQKSPSASVTVTLEPGRALDEGQISAVVHLVSSAVAGLPPGNVTLVDQSGHLLTQSNTSGRDLNDAQLKFANDVESRIQRRIEAIRSPIVGNGNVHAQVTAQLDFANKEQTEEHYSPNGDASKATLRSRQLNISEQVGAGYPGGVPGALSNQPAPPNEAPIATPPTNQQNAQNTPQTSTSTNSNSAGPRSTQRNETSNYEVDRTIRHTKMNVGDIERLSVAVVVNYKTLADGKPLPLTADQMKQIEDLTREAMGFSDKRGDTLNVVNSPFSAVDNTGGELPFWQQQSFIDQLLAAGRWLLVLVVAWILWRKAVRPQLTRRVEEAKAAQEQAQVRQETEEAVEVRLSKDEQLQQRRANQRLGAEVMSQRIREMSDNDPRVVALVIRQWMSNDHE
B7: FliF(I252A) expressed from pMMiF002 in Salmonella TH12415 (ΔfliF) (natural protein)
chain: MSATASTATQPKPLEWLNRLRANPRIPLIVAGSAAVAIVVAMVLWAKTPDYRTLFSNLSDQDGGAIVAQLTQMNIPYRFANGSGAIEVPADKVHELRLRLAQQGLPKGGAVGFELLDQEKFGISQFSEQVNYQRALEGELARTIETLGPVKSARVHLAMPKPSLFVREQKSPSASVTVTLEPGRALDEGQISAVVHLVSSAVAGLPPGNVTLVDQSGHLLTQSNTSGRDLNDAQLKFANDVESRIQRRIEAALSPIVGNGNVHAQVTAQLDFANKEQTEEHYSPNGDASKATLRSRQLNISEQVGAGYPGGVPGALSNQPAPPNEAPIATPPTNQQNAQNTPQTSTSTNSNSAGPRSTQRNETSNYEVDRTIRHTKMNVGDIERLSVAVVVNYKTLADGKPLPLTADQMKQIEDLTREAMGFSDKRGDTLNVVNSPFSAVDNTGGELPFWQQQSFIDQLLAAGRWLLVLVVAWILWRKAVRPQLTRRVEEAKAAQEQAQVRQETEEAVEVRLSKDEQLQQRRANQRLGAEVMSQRIREMSDNDPRVVALVIRQWMSNDHE
B8: FliF(L253A) expressed from pMMiF004 in Salmonella TH12415 (ΔfliF) (natural protein)
chain: MSATASTATQPKPLEWLNRLRANPRIPLIVAGSAAVAIVVAMVLWAKTPDYRTLFSNLSDQDGGAIVAQLTQMNIPYRFANGSGAIEVPADKVHELRLRLAQQGLPKGGAVGFELLDQEKFGISQFSEQVNYQRALEGELARTIETLGPVKSARVHLAMPKPSLFVREQKSPSASVTVTLEPGRALDEGQISAVVHLVSSAVAGLPPGNVTLVDQSGHLLTQSNTSGRDLNDAQLKFANDVESRIQRRIEAIASPIVGNGNVHAQVTAQLDFANKEQTEEHYSPNGDASKATLRSRQLNISEQVGAGYPGGVPGALSNQPAPPNEAPIATPPTNQQNAQNTPQTSTSTNSNSAGPRSTQRNETSNYEVDRTIRHTKMNVGDIERLSVAVVVNYKTLADGKPLPLTADQMKQIEDLTREAMGFSDKRGDTLNVVNSPFSAVDNTGGELPFWQQQSFIDQLLAAGRWLLVLVVAWILWRKAVRPQLTRRVEEAKAAQEQAQVRQETEEAVEVRLSKDEQLQQRRANQRLGAEVMSQRIREMSDNDPRVVALVIRQWMSNDHE
B9: full-length Salmonella FliF (MS ring), overexpressed from pKOT112 (data set 1) (natural protein)
chain: MSATASTATQPKPLEWLNRLRANPRIPLIVAGSAAVAIVVAMVLWAKTPDYRTLFSNLSDQDGGAIVAQLTQMNIPYRFANGSGAIEVPADKVHELRLRLAQQGLPKGGAVGFELLDQEKFGISQFSEQVNYQRALEGELARTIETLGPVKSARVHLAMPKPSLFVREQKSPSASVTVTLEPGRALDEGQISAVVHLVSSAVAGLPPGNVTLVDQSGHLLTQSNTSGRDLNDAQLKFANDVESRIQRRIEAILSPIVGNGNVHAQVTAQLDFANKEQTEEHYSPNGDASKATLRSRQLNISEQVGAGYPGGVPGALSNQPAPPNEAPIATPPTNQQNAQNTPQTSTSTNSNSAGPRSTQRNETSNYEVDRTIRHTKMNVGDIERLSVAVVVNYKTLADGKPLPLTADQMKQIEDLTREAMGFSDKRGDTLNVVNSPFSAVDNTGGELPFWQQQSFIDQLLAAGRWLLVLVVAWILWRKAVRPQLTRRVEEAKAAQEQAQVRQETEEAVEVRLSKDEQLQQRRANQRLGAEVMSQRIREMSDNDPRVVALVIRQWMSNDHE
B10: full-length Salmonella FliF (MS ring), overexpressed from pKOT105 (data set 2) (natural protein)
chain: MSATASTATQPKPLEWLNRLRANPRIPLIVAGSAAVAIVVAMVLWAKTPDYRTLFSNLSDQDGGAIVAQLTQMNIPYRFANGSGAIEVPADKVHELRLRLAQQGLPKGGAVGFELLDQEKFGISQFSEQVNYQRALEGELARTIETLGPVKSARVHLAMPKPSLFVREQKSPSASVTVTLEPGRALDEGQISAVVHLVSSAVAGLPPGNVTLVDQSGHLLTQSNTSGRDLNDAQLKFANDVESRIQRRIEAILSPIVGNGNVHAQVTAQLDFANKEQTEEHYSPNGDASKATLRSRQLNISEQVGAGYPGGVPGALSNQPAPPNEAPIATPPTNQQNAQNTPQTSTSTNSNSAGPRSTQRNETSNYEVDRTIRHTKMNVGDIERLSVAVVVNYKTLADGKPLPLTADQMKQIEDLTREAMGFSDKRGDTLNVVNSPFSAVDNTGGELPFWQQQSFIDQLLAAGRWLLVLVVAWILWRKAVRPQLTRRVEEAKAAQEQAQVRQETEEAVEVRLSKDEQLQQRRANQRLGAEVMSQRIREMSDNDPRVVALVIRQWMSNDHE

The first data set deals with the molecule itself. As to the kind of experiment: negative-stain EM.
Consider B1, for which the binding result is reported as “binds”.

As to B2, the binding result is “binds”. B3: the binding result was “binds”. Still for that read-out and setting: the same measure for B4: “binds”; for B5: “binds”; for B6: “binds”.

The next data set concerns the molecule itself. The experiment in a line: electron microscopy of purified hook-basal bodies.
On to B7, for which the binding result is recorded as “binds”. The same measure, in the same setting: for B8 the value was “binds”.

A further data set deals with the molecule itself. As to the kind of experiment: cryo-EM structure.
What is called stoichiometry N is the number of molecules, sites or subunits per partner or assembly. In the case of B9, the “stoichiometry N” value worked out at 34.

Take B10: the “stoichiometry N” value was 34.
